Assay results as given in paper PMC12685124 (Proceedings of the National Academy of Sciences of the …, 2025).

Key:
[1] = molecular target: T1, mesencephalic astrocyte-derived neurotrophic factor (Manf), recombinant (UniProt P55145 25-182); test: MST
[2] = molecular target: T2, brain-derived neurotrophic factor (BDNF) (UniProt P23560 19-247); test: MST
T2 sequence (looked up): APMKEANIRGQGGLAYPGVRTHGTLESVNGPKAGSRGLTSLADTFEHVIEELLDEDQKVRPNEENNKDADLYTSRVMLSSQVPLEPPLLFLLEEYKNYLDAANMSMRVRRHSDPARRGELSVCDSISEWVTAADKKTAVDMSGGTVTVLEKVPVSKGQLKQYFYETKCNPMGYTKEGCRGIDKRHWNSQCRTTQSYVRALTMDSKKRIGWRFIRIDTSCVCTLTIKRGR

[3] = molecular target: T1, mesencephalic astrocyte-derived …; test: ELISA

- Kd [1]: 34.6 ± 7.19 nM
- Kd [2]: 1740 ± 410 nM
- Kd [3]: 14.5 ± 1.17 nM
B1: recombinant Np55 protein, extracellular domain (SinoBiological) (domain or fragment)
chain: QNEPRIVTSEEVIIRDSPVLPVTLQCNLTSSSHTLTYSYWTKNGVELSATRKNASNMEYRINKPRAEDSGEYHCVYHFVSAPKANATIEVKAAPDITGHKRSENKNEGQDATMYCKSVGYPHPDWIWRKKENGMPMDIVNTSGRFFIINKENYTELNIVNLQITEDPGEYECNATNAIGSASVVTVLRVRSHLAP
modifications: RED-NHS fluorescent label (in the MST assay only)
